# Data reported in patent US20210147513A1.
# Tests used:
# [1] = target: hDPP4 Cells (human) (UniProt P27487); experiment: FACS; settings: Fc fusion
# [2] = target: S1(349-590)-hFc (MERS-CoV; human); experiment: BLI (Octet RED96), wild type RBD-hFc
# Sequence of hDPP4 Cells (human) (P27487 whole entry, the tested form may be a part): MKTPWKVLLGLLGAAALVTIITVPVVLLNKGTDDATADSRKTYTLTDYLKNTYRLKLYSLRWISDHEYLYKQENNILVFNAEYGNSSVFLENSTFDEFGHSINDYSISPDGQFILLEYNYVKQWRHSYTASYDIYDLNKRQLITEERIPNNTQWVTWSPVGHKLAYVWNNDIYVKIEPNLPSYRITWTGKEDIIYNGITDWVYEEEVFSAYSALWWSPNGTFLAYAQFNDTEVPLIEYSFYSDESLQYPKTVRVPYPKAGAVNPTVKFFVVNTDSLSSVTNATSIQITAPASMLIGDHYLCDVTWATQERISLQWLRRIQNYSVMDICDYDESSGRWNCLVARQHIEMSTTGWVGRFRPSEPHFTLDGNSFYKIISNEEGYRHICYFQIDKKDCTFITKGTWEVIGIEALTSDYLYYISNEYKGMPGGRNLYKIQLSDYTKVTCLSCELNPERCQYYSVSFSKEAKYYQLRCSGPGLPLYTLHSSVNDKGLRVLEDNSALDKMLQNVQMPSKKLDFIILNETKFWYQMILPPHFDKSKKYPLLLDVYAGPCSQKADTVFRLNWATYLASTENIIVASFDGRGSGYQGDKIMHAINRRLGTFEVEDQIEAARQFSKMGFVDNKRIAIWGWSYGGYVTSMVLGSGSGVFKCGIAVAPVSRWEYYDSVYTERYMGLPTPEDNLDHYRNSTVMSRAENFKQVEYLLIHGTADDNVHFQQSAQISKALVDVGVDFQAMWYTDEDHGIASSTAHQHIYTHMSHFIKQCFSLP
substance,measurement,setting,value
Wt. RBD,EC50,[1],0.015 mg/L
Recombinant soluble human DPP4 (from UniProt P27487 29-766) (receptor),Kd,[2],0.0214 µM
